Reference: article PMC8887474

B1: CC(m6A)UCG hexamer (ssRNA)
RNA: CCAUCG
modifications: m6A at position 3
B2: UG-mismatch (m6A)UCG Xist hairpin (structured_RNA)
RNA: GGCGUAUCGGCGCC
modifications: m6A at position 6
B3: (m6A)UCG Xist tetraloop hairpin (structured_RNA)
RNA: GGCGCAUCGGCGCC
modifications: m6A at position 6

What follows are binders tested against YTHDC1 YTH domain (Homo sapiens, UniProt Q96MU7 345-509) (assay: ITC).

First: B1
Second: B2
The Kd of the first is 1.6-fold lower: 1270 ± 240 nM for the first, 2050 ± 100 nM for the second. The first binds more tightly here.

Work on B3 yielded a Kd of 3030 ± 530 nM.
